Fewer inactive variants are shown than the library holds.
B1: TPR 5TU (parent)
chain: GGAUCUUCUCGAUCUAACAAAAAAGACAAAUCUGCCACAAAGCUUGAGAGCAUCUUCGGAUGCAGAGGCGGCAGCCUUCGGUGGCGCGAUAGCGCCAACGUUCUCAACUAUGACACGCAAAACGCGUGCUCCGUUGAAUGGAGUUUAUCAUG

Variants of: B1
Experiment: polymerase ribozyme fitness, log enrichment relative to wild type (log ratio); higher = more active; in vitro selection for triplet polymerase activity
Summary of the method: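 Streptavidin-bead capture of gel-excised extended constructs, followed by RT-PCR, closed a single triplicate in vitro selection round. That round began by annealing PCR-built, transcribed mutant libraries of each subunit of a heterodimeric triplet polymerase ribozyme with a biotinylated primer, the partner subunit and triplets, then incubating them frozen at −7 °C. After Illumina sequencing of inputs and outputs, genotypes needed ≥10 input reads and ≥1 read per output. Fitness is the base-2 logarithm of genotype enrichment over wild-type enrichment, using inverse-variance-weighted replicate averages.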

Variant | polymerase ribozyme fitness (log ratio)
C54U U56A G81A C95A U101C | -1.35
C54U U55G U82G | -1.38
U55G G81A G141C U146G | -2.62
U55G G59C A142C | -3.24
U55A C125A | -0.912
U55A G94C U148G | ≤ -4.2
U55A G62C G81A | -3.98
U55A C69A U77C A89G | ≤ -4.2
U55A C93U A115U G143U | ≤ -4.2
C54U G68C C69G G71U G140A U144G | ≤ -4.2
U55A C72U C79A A107G | ≤ -4.2
U55C U56A A98U U145A | -1.11
U55A A73G | -0.446
C54U G65A C85U A89G U146G | -4.13
U55A G58A C85A C131U | 0.931
U55C U78C G117U U135G U151G | ≤ -4.2
C54U U82A G83A A98G | -1.89
C54U U134A | -2.84
U55A C96G A115U A119G | -2.42
U55A U78C C123G | -0.403
U55G A60G C69U A91G U144A | -2.3
U55A G67A U127A | ≤ -4.2
C54U G84A C105A | -0.565
U55A C114A | -3.44

Variant | polymerase ribozyme fitness (log ratio)
U55A C114U | -2.21
U55A A60G A137C | -3
U55A C69U G94C | -3.36
C54U U101G | -0.483
U55A A60U G84U C116G A119U | -2.63
U55A U139G | -0.865
U55A A60U C118G A119C | -0.427
U55A C57G C87G C93U U104G | ≤ -4.2
C54U U56A C118U | -0.674
U55G C114U | -2.17
U55G C57G A97G A106C | -3
U55A C103U | -0.726
U55A C103G | -2.22
U55G G83A | -0.31
U55G G83U | -0.389
U55G G83C | -0.921
U55A G143C | -2.99
U55A U109G A137U | -4.19
U55A U56A G59A | 0.199
U55A C76G A138C | ≤ -4.2
U55A U61G G86U | ≤ -4.2
U55G C72U | -0.349
U55G C72U G83U C96U | -1.11
U55A G70A C123G | -3.3

Variant | polymerase ribozyme fitness (log ratio)
U55G A106C | -0.416
U55A C69U G136A | -3.04
U55A U56G C75G | -4.19
U55A U144A | -0.497
U55A U144G | 0.364
U55A U144C | 0.176
U55G C57G U101G | 0.189
U55G C93U U101G | -0.936
U55A A97U | -0.916
U55A A97C | 0.466
C54U U77C G88A C96U A106C | ≤ -4.2
U55A G58A A89C A120U U134C | 0.161
U55G A107U A122U | -3.21
U55A A115G G124U | -0.932
C54U G143A | -0.736
U55A C69A A97U U102C C149A | ≤ -4.2
C54U G71U C85A C96G G133C U145G G152A | ≤ -4.2
U55A G84U A106C U144C U146C | -4.16
C54U U82C C95A G141U | -2.99
U55A C72U C76U U78C G84A | -2.57
U55A C69U C93U | -3.95
U55A G92U U146C | -0.69
U55A A150C | -3.6
U55A C63G A121U | -0.282

Variant | polymerase ribozyme fitness (log ratio)
U55A A142U | -0.464
U55A A73U C93A A122U | -3.55
U55G G83A C103U U135A | -2.23
U55A G86A C149U A150U | -1.65
U55A C57U | 0.643
U55A C57A | 0.142
U55G C79G U145A | ≤ -4.2
C54U G88A A89U C95A C99U U146G U151A | ≤ -4.2
U55G A97G | 0.0201
U55A C85A G133C | -3.05
U55G A89G G124C U146C | -1.44
U55A G124U U139G | 0.0477
C54U G83U C85A U90G | ≤ -4.2
U55A U56A G80U U111A | ≤ -4.2
U55A C75U | 0.238
U55A G59C G94U A107C | ≤ -4.2
U55A C116G | 0.374
U55A C63A G83C G84U C125G U135A | ≤ -4.2
C54U G80A | -0.56
U55G G68C A107C C125A U151G | ≤ -4.2
U55A G71A U77C C95U A113C C149G | ≤ -4.2
U55G G59C G94C U102A U127A U135C | ≤ -4.2
C54U G81A C95U | -0.559
U55A A73G A89G G136A | -0.934

Variant | polymerase ribozyme fitness (log ratio)
U55G C85G | -1.66
U55G C85U | -0.188
U55G C85A | -2.4
U55A A73C C87U G92A | -2.04
U55G G86A U134A | -3.62
U55A G80A | -1.65
C54U G59C A97U | -0.658
C54U G65U G81A C93U A97U | ≤ -4.2
U55G C87U U130C | -0.00301
U55A C63A | -0.431
U55A A64C C85U U146G | ≤ -4.2
U55A U78A C85U C93U | ≤ -4.2
U55A G59A | 1.69
C54U G84C G100C C108A A113U G141U | ≤ -4.2
U55G G81A U139C | ≤ -4.2
U55C C63U C85G A107U A142U U145A | ≤ -4.2
C54U G84A U146G | -1.56
U55A G84A G86A C93U C105U | -1.1
U55A G86U A91U G133U A147U | ≤ -4.2
C54U U77C G84A U109C | ≤ -4.2
U55A A113C | -2.92
U55A U61A C96A C116G | -2.17
U55G C87A C118U U130G | ≤ -4.2
C54U U56A G86A U102A C116A | -2.55

Variant | polymerase ribozyme fitness (log ratio)
U55A A66C U77A C87A | ≤ -4.2
U55A G100A | ≤ -4.2
U55A A91G U134A | -4.01
U55A G68A | -3.21
U55A C57U A66C G94A A106G G128U G140A | ≤ -4.2
U55A A89U U102G | ≤ -4.2
U55A G67A C85U U90A A98U | ≤ -4.2
U55A A106U A107U | -4.11
U55A C129A | -2.11
C54U G136A | 0.306
C54U G88C | ≤ -4.2
U55A C76U A121C | -0.181
U55A U56C G58A G92C A119U U145G | -2.87
U55G A60U G83C A137U G141U | ≤ -4.2
U55A A115U | -1.89
U55A G140A | -4
U55A G140U | -2.9
C54U G84A A110U | ≤ -4.2
U55A G124U | -2
U55A G124A | -0.272
U55A G92U G124U G141C | -1.14
U55C A73U A97U U144G | -1.48
U55G C85U C131U U134C | 1.73
U55A G136A | -0.833

Variant | polymerase ribozyme fitness (log ratio)
U55A C76A C114U | -3.91
U55G A73C C87A | ≤ -4.2
U55G G84A A89U C103U | -1.64
U55A C79G G81A | -4.18
U55A G128A | -4.18
U55A U61A C93U C103A | ≤ -4.2
U55G C69A C99U | -0.89
U55A A91C | ≤ -4.2
U55A C96A G136C | -3.78
U55A U61A A97C C103A C125A | ≤ -4.2
C54U G74C | -3.95
C54U U56C A73U | -1.06
U55A U56A A106C | -1.06
U55G G62A G92U C96A | -3.44
U55A C87U U146A | -1.36
U55A U78G G94U C114G | ≤ -4.2
U55A A121U | -0.372
U55A G84A A119C G133U G143A | -4.03
U55A A91U C96A C125G A142G | ≤ -4.2
U55G A98U U144G | 0.317
U55A U61A A91U A97C A142G | ≤ -4.2
C54U G86A | -1.18
C54U G86U | -1.78

From the RNAGym collection of RNA variant scans (doi:10.1073/pnas.2313332121)
